Laboratory results from the nanobody polyreactivity screen of Harvey et al. (2022).

Experiment: yeast display, Sf9 membrane polyspecificity reagent, FACS + sequencing; frameworks hold sequencing errors
Outline: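 Polyreactivity labels are assigned by the sorting gate from which each nanobody was recovered. The gates were low and high (top ~1%), set on anti-HA fluorescence for expression and streptavidin fluorescence for reagent binding. Before sorting, galactose-induced (36–48 hours) yeast display cells were stained for 1 hour at 4 °C with 10% biotinylated, detergent-solubilized Sf9 membrane reagent.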
With “QVQLVESAGGLVQAGGSLRLICAASGSIFDLYAMGWYRQAPGTERELVAASTWSGGSTYYADSVKGRFTISRDNAKNTVYLQMNSLKPEDTAVYYCAAAYVGTQDLVIDYDYWGQGTQVTVSS” the “polyreactivity (PSR sort gate)” value was “low polyreactivity”. In the case of “QVQLVESAGGLVQAGGSLRLSCAASARTFGAYAMGWYRQAPGNERELVATITVSGGSTYYADSVKGRFTISRENAKNTVYLPMNSLKPEDTAVYYCAAAYDWWQFYSWTIAYDYWGQGTQVTVSS”, the “polyreactivity (PSR sort gate)” value is reported as “low polyreactivity”. In the case of “QVQLVESAGGLVQAGGSLRLSCAASGFIFRFNAMGWYRQAPGKERELVAAISWSGSSTYYADSVKGRFTISRDNAKNTVYLQMNSLKPEDTAVYYCATSAFYYKIVKGDFYYWGQGTQVTVSS”, the “polyreactivity (PSR sort gate)” value is reported as “high polyreactivity”. For “QVQLVESAGGLVQAGGSLRLSCAASGFTFIGYVMGWYRQAPGKERELVAAITSGGDTNYADSVKGRFTISRDNAKNTVYLQMNSLKPEDTAVYYCNKGAYWVEYAYIEGELDYWGQGTQVTVSS”, the “polyreactivity (PSR sort gate)” value was “low polyreactivity”. In the case of “QVQLVESAGGLVQAGGSLRLSCAASGFTFREYAMGWYRQAPGKERELVADIDWSGGSTYYADSVKGRFTISRDNAKNTFYLQMNSLKPEDTAVYYCAKAYYPGVYWGQGTQVTVSS”, the “polyreactivity (PSR sort gate)” value is reported as “high polyreactivity”. With “QVQLVESAGGLVQAGGSLRLSCAASGFTFSSYVMGWYRQAPGKARELVAAISSSGARTYYADSVKGRFTISRDNAKNTVYLQMNSLKPEDNADYYCAAENSPRPYDYWGQGTQVTVSS” the “polyreactivity (PSR sort gate)” value was “high polyreactivity”. In the case of “QVQLVESAGGLVQAGGSLRLSCAASGGIFVFYAMGWYRQAPGKERELVAAITYRGGSTSYADSVKGRFTISRDHAKNTVYLQLNSVKPEDTAVYYCAAAFYAKGQRYGYWGHGTQVTVSS”, the “polyreactivity (PSR sort gate)” value is reported as “high polyreactivity”. With “QVQLVESAGGLVQAGGSLRLSCAASGIIFRPNPLGWYRQAPGKERELVAAISKRGGSTYYADSVKGRFTISRDNAKNTVYLQMNSLKPEDTAVYYCAKRQQQSSGYDYWGQGTQVTVSS” the “polyreactivity (PSR sort gate)” value was “high polyreactivity”. For “QVQLVESAGGLVQAGGSLRLSCAASGIIFTPNPMGWYRQAPGKEREFVAAINYGGDTTYYADSVKGRFTISRNNAKNTVYLQMNRLKPEDTAVYYCATDGTTPTPRDAFVRFDHWGQGTQVTVSS”, the “polyreactivity (PSR sort gate)” value was “low polyreactivity”. In the case of “QVQLVESAGGLVQAGGSLRLSCAASGITFSGYAMGWYRQAPGKERELVAAISWRGVRTYYADSVKGRFTISRDNAKNTVYLQMNSLKPEDTAVYYCAAVRYITKEFYWGQGTQVTVSS”, the “polyreactivity (PSR sort gate)” value is reported as “high polyreactivity”. For “QVQLVESAGGLVQAGGSLRLSCAASGLIIYYYAMGWYRPAPGKERELVAAISGSSGASTYYADSVKGRFTISRDNAKNTVYLQMNSLKPEDTAVYYCNADWARLWIRSTEFDYWGQGTQVTVSS”, the “polyreactivity (PSR sort gate)” value was “low polyreactivity”. For “QVQLVESAGGLVQAGGSLRLSCAASGRIFQFYAMGWYRQARGKERELVAVITRRGGSTHYADSVKGRFTISRDTAKNTVYLQMNILKPEDTAVYYCAKVPFHFVSPYDYWGQGTQVTVSS”, the “polyreactivity (PSR sort gate)” value was “high polyreactivity”. For “QVQLVESAGGLVQAGGSLRLSCAASGRIFSTYAMGWYRQAPGKERELVAAISWRGSSTYYADSVKGRFTISRDHAKNTVYLQMNSLKPEDTAVYYCNADKANRYDWGQGTQVTVSS”, the “polyreactivity (PSR sort gate)” value was “high polyreactivity”. In the case of “QVQLVESAGGLVQAGGSLRLSCAASGRIFVYYAMGGYRKAPGKERELVAAISDSDDSSYYADSVKGRFTISRDNAKNTVYLQMNSLKPEDTAVYYCAAEGDIGGDDYYWGQGTQLTVSS”, the “polyreactivity (PSR sort gate)” value is reported as “high polyreactivity”. In the case of “QVQLVESAGGLVQAGGSLRLSCAASGRIFWGNAMGWYRQAPGKERELVAAITRRGGTKFYADSVKGRFTISRDNAKNTVYLQMNSLIPEDTAVYYCAARRYGQYDGYDSWGQGTQVTVSS”, the “polyreactivity (PSR sort gate)” value is reported as “high polyreactivity”. For “QVQLVESAGGLVQAGGSLRLSCAASGRILFGYAMGWYRQAPGKERELVADITSTGSTNYADSVKGRFTISRDNAKNTVYLQMNSLKPEDTAVYYCNVDDTSWTTSGGRFGQVESDYWGQGTQVTVSS”, the “polyreactivity (PSR sort gate)” value was “low polyreactivity”. With “QVQLVESAGGLVQAGGSLRLSCAASGRTFGRYAMGGYRQAPGKERELVAGISGSVGITYYADSVKGRFTISRDNAKNTVYLQMNSLKPEDTAVYYCAVVARAGHKYDYWGQGTQVTVSS” the “polyreactivity (PSR sort gate)” value was “low polyreactivity”. With “QVQLVESAGGLVQAGGSLRLSCAASGRTFGYYAMGWYRQAPGKERELVAAISSGGSTNYADSVKGRFTISRDNAKNTVYLQMNSLKPEDTAVYHCAAKAWYYPGRRNYYQYYYWGQGTQVTVSS” the “polyreactivity (PSR sort gate)” value was “high polyreactivity”. With “QVQLVESAGGLVQAGGSLRLSCAASGRTFKYYAMGWYRQAPGKERELVAAITSTGGSTYYADSVKGRFTISRDNEKNTVYLQMNSLKPEDTAVYYCNRYTQYRDRSDNHWGQGTHVTVSS” the “polyreactivity (PSR sort gate)” value was “high polyreactivity”. In the case of “QVQLVESAGGLVQAGGSLRLSCAASGRTFRKYAMGRYRQAPGKERELVAAISSSGGSTFYADSVKGRFTISRDNAKNTVYLQMNSLKPEDTAVYYCAAEALRRYSFGYWGQGTQVTVSS”, the “polyreactivity (PSR sort gate)” value is reported as “low polyreactivity”. For “QVQLVESAGGLVQAGGSLRLSCAASGRTFTDYVMGWYRQAPGKESELVAAITSGGGTTYYADSVKGRFTISRDNAKKTVYLQMNSLKPEDTAVYYGNAVSYRRSRYWGYVYWGQGTQVTVSS”, the “polyreactivity (PSR sort gate)” value was “high polyreactivity”. In the case of “QVQLVESAGGLVQAGGSLRLSCAASGRTIDSYTMGWYRQAPGKERELVASISKRGGSTYYADSVKERFTISRDNAKNTVYLQMNSLKPQDTAVYYCATKSYYVSYYRYRVDYWGQVTQVTVSS”, the “polyreactivity (PSR sort gate)” value is reported as “high polyreactivity”. In the case of “QVQLVESAGGLVQAGGSLRLSCAASGSIFDDYAMGWYRQAPGKERELVAAISDSGGSTSYADSVKGRFTISRDNAKNTVYLQMNSLKPEDTAVYYCNADRDDDYDYWGQGTQVTLSS”, the “polyreactivity (PSR sort gate)” value is reported as “low polyreactivity”. For “QVQLVESAGGLVQAGGSLRLSCAASGSIFERNVIGWYRRAPGKERELVPRISTSGGSTTYYADSVKGRFTISRDTAKNTVYLQMNSLKPEDTAVYYCAAGRGYWWWYGYDYWGQGTQVTVSS”, the “polyreactivity (PSR sort gate)” value was “low polyreactivity”. With “QVQLVESAGGLVQAGGSLRLSCAASGSIFGPYAMGWYRQAPGKERELVAVISSGDSTNYADSVKGRFTISRDNAKNTVYLQMNSLKPEDTAVYYCATRYLLYRGGHTLFYHFDYWGLGTQVTVSS” the “polyreactivity (PSR sort gate)” value was “low polyreactivity”. In the case of “QVQLVESAGGLVQAGGSLRLSCAASGSIFGSYAMGGYRQAPGKERELVAAIYSSGGSTYYADSVKGRFTISRDNAKNTVYLQMNSLKPEDTAVYYCNKYVRYGDGYWGQGTQVTVSS”, the “polyreactivity (PSR sort gate)” value is reported as “high polyreactivity”. In the case of “QVQLVESAGGLVQAGGSLRLSCAASGSIIYYNAMGWYRQAPGKERELVAAITGSGGSTYYADSVKGRFTISRDNAKNTVYLQMNSLKPEDTAVYYCAADYSLYGWWFRNDYWGQGTQVTVSS”, the “polyreactivity (PSR sort gate)” value is reported as “low polyreactivity”. For “QVQLVESAGGLVQAGGSLRLSCAASGSILPSNAMGWYRQATGKERELVAGLSERGSSTYYADSVKGRFTISRDNAKNTVYLQMNSLKPEDTAVYYCAADDVGRYWSSTHNWARGEYWGQGTHVTVSS”, the “polyreactivity (PSR sort gate)” value was “low polyreactivity”. In the case of “QVQLVESAGGLVQAGGSLRLSCAASGSNFKYYAMGWYRQAPGKERELVAAINGSGGSTYYADSVKGRFTISRDNAKNTVYLQMNSLKPEDTAVYYCARASDYNKVSKSQRMDYWGQGTQVTVSS”, the “polyreactivity (PSR sort gate)” value is reported as “high polyreactivity”. In the case of “QVQLVESAGGLVQAGGSLRLSCAASGSTFAFYAMGWYRQAPGKERELVAVISLRGSRTYYADSVKGRFTISRDNAKNTVYLQMSSLKPEDTAVYYCATTGYRLRQATRYDYWGQGTQVTVSS”, the “polyreactivity (PSR sort gate)” value is reported as “high polyreactivity”. With “QVQLVESAGGLVQAGGSLRLSCAASGSTFDYYAMGWYRQAPGKERELVAAISRTGGRTYYADSVKGRFTISRDNAKNTVYLQMNSLKPEDTAVYYCATRNGRQYSVSYRYYYWGQGTQVTVSS” the “polyreactivity (PSR sort gate)” value was “low polyreactivity”.
